In US20070161078A1:

Columns and labels:
[1] = molecular target: Peptide 1958 H5N1A (EPEV) (influenza A H5N1); test: G assay titration
[2] = molecular target: MBP.NS1 H1N1 (RSEV) (influenza A H1N1) (UniProt A3DRP6); test: G assay titration
[3] = molecular target: MBP.NS1 H3N2 (RSKV) (influenza A H3N2) (UniProt Q67253); test: G assay titration
[4] = molecular target: MBP.NS1 H3N2 (RSKV) (influenza A H3N2) (UniProt Q67253); test: titration, direct binding sandwich assay
[5] = molecular target: MBP.NS1 H5N1A (EPEV) (influenza A H5N1) (UniProt O56264); test: G assay titration
[6] = molecular target: MBP.NS1 H5N1B (ESEV) (influenza A H5N1) (UniProt Q6DP28); test: G assay titration
[7] = molecular target: MBP.NS1 H1N1 (RSEV) (influenza A H1N1) (UniProt A3DRP6); test: direct binding assay titration
[8] = molecular target: MBP.NS1 H3N2 (RSKV) (influenza A H3N2) (UniProt Q67253); test: direct binding assay titration
[9] = molecular target: MBP.NS1 H5N1A (EPEV) (influenza A H5N1) (UniProt O56264); test: direct binding assay titration
[10] = molecular target: MBP.NS1 H5N1B (ESEV) (influenza A H5N1) (UniProt Q6DP28); test: direct binding assay titration
[11] = molecular target: MBP.NS1 H1N1 (RSEV) (influenza A H1N1) (UniProt A3DRP6); test: titration, direct binding sandwich assay
[12] = molecular target: MBP.NS1 H5N1A (EPEV) (influenza A H5N1) (UniProt O56264); test: titration, direct binding sandwich assay
[13] = molecular target: MBP.NS1 H5N1B (ESEV) (influenza A H5N1) (UniProt Q6DP28); test: titration, direct binding sandwich assay

## PSD95 d2 (from UniProt P31016 160-246)
[1]
  EC50: 3.8 mg/L

## INADL d8 (from UniProt Q8NI35 1431-1525)
[2]
  EC50: 3.2 mg/L
[3]
  EC50: 0.9 mg/L
[4]
  EC50: 0.869 mg/L

## NeDLG d1,2 (from UniProt Q92796 124-316)
[2]
  EC50: 1.1 mg/L
[3]
  EC50: > 50 mg/L

## MAST2 d1 (from UniProt Q6P0Q8 1098-1197)
[2]
  EC50: 2 mg/L
[3]
  EC50: > 50 mg/L
[1]
  EC50: 5.5 mg/L

## Outer Membrane Protein (from UniProt P08515 1-218)
[2]
  EC50: 1.2 mg/L
[3]
  EC50: 13 mg/L
[5]
  EC50: 27 mg/L
[6]
  EC50: 0.2 mg/L
[7]
  EC50: 6 mg/L
[8]
  EC50: 3 mg/L
[9]
  EC50: 12.5 mg/L
[10]
  EC50: 0.8 mg/L
[11]
  EC50: 1.25 mg/L
[12]
  EC50: 12.6 mg/L
[13]
  EC50: 0.18 mg/L

## Magi3 d1 (from UniProt Q5TCQ9 18-106)
[2]
  EC50: 3.1 mg/L
[3]
  EC50: 3 mg/L
